Laboratory results taken from patent US20260248925A1.

Target: PTH receptor (PTHR1) (human) (UniProt Q03431)
Assay: cell-based or functional assay

UniProt Q03431, sequence (Q03431 27-593): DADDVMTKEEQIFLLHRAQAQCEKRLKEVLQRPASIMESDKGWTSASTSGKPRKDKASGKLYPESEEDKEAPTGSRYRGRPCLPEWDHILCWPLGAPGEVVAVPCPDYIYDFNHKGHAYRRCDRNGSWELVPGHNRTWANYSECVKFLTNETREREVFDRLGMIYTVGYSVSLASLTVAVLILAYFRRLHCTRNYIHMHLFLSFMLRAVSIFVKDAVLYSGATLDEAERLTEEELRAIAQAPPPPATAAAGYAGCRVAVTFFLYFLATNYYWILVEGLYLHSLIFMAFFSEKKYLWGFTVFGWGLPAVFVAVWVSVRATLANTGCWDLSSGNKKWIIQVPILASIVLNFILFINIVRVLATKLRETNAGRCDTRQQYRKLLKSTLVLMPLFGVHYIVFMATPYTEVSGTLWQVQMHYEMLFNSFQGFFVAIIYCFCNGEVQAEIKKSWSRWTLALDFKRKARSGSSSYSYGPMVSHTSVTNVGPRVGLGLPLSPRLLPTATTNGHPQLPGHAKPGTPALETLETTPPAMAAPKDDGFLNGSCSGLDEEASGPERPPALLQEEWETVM

EC50 (cAMP, PTH1 cellular assay): 1.4 nM
Maximal response: 105%
Substance: PTH (ligand)
